What was measured:
[1] = biological target: human FcγRIIb on CHOK1 cells overexpressing FcγRIIb (human) (UniProt P31994); experiment: flow cytometry on CHOK1 cells overexpressing FcγRIIb; detection with anti-human kappa antibody
[2] = biological target: human FcγRIIa (R131) on CHOK1 cells overexpressing FcγRIIa (R131) (human) (UniProt P12318); experiment: flow cytometry on CHOK1 cells overexpressing FcγRIIa (R131); detection with anti-human kappa antibody
Chain of UniProt P12318 (P12318 34-317 H167R): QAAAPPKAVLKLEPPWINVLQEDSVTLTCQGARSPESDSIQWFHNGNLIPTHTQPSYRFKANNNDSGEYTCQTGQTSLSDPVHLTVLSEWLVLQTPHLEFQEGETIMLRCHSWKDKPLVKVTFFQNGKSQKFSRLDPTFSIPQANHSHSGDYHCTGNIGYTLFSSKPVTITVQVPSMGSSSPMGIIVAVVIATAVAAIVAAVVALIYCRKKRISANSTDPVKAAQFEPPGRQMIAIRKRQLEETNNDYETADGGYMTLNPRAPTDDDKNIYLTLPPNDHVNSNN

Chain of UniProt P31994 (P31994 43-310): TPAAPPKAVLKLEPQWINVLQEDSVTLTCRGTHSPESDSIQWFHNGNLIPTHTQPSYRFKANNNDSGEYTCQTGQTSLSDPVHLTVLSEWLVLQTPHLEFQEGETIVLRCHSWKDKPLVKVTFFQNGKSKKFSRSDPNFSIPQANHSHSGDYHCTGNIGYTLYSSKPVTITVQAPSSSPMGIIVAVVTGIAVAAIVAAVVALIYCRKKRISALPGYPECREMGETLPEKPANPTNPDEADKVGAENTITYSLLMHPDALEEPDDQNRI

Log EC50 [1] | Log EC50 [2] | Substance
4.42 | 3.9 | anti-RSV AAA (from UniProt P01857 1-330) (antibody)
-0.0779 | – | anti-LAG3 SELF (from UniProt P01857 1-330) (antibody)

Source: patent US20240025995A1
